Test results taken from article PMC5974087, “The RPAP3-Cterminal domain identifies R2TP-like quaternary chaperones” (Nature Communications, 2018).

B1: GFP-RPAP3-Cter [human] / SHQ1 [human (endogenous in HeLa)] (parent)
chain 1: AQFATTVLPPIPANSFQLESDFRQLKSSPDMLYQYLKQIEPSLYPKLFQKNLDPDVFNQIVKILHDFYIEKEKPLLIFEILQRLSELKRFDMAVMFMSETEKKIARALFNHIDKSGLKDSSVEELKKRYGG
chain 2: MLTPAFDLSQDPDFLTIAIRVPYARVSEFDVYFEGSDFKFYAKPYFLRLTLPGRIVENGSEQGSYDADKGIFTIRLPKETPGQHFEGLNMLTALLAPRKSRTAKPLVEEIGASEIPEEVVDDEEFDWEIEQTPCEEVSESALNPQCHYGFGNLRSGVLQRLQDELSDVIDIKDPDFTPAAERRQKRLAAELAKFDPDHYLADFFEDEAIEQILKYNPWWTDKYSKMMAFLEKSQEQENHATLVSFSEEEKYQLRKFVNKSYLLDKRACRQVCYSLIDILLAYCYETRVTEGEKNVESAWNIRKLSPTLCWFETWTNVHDIMVSFGRRVLCYPLYRHFKLVMKAYRDTIKILQLGKSAVLKCLLDIHKIFQENDPAYILNDLYISDYCVWIQKVKSKKLAALAEALKEVSLTKAQLGLELEELEAAALLVQEEETALKAAHSVSGQQTLCSSSEASDSEDSDSSVSSGNEDSGSDSEQDELKDSPSETVSSLQGPFLEESSAFLIVDGGVRRNTAIQESDASQGKPLASSWPLGVSGPLIEELGEQLKTTVQVSEPKGTTAVNRSNIQERDGCQTPNN

Variants of: B1
Assay: SILAC quantitative proteomics of GFP IP
Settings: with SHQ1 [human (endogenous in HeLa)]; read off a plot

Variant | enrichment (Log2 SILAC ratio)
chain 1 R89A M92A | 1.5
